Assay results reported in US20060134719A1, “Novel serine protease” (priority 2002, published 2006).
*: point of attachment. AMC = Cc1cc(=O)oc2cc(N*)ccc12; Boc = CC(C)(C)OC(=O)*; OBn = c1ccc(CO*)cc1

Assays:
Format in all cases: biochemical
[1] = target: T1, purified signal-FLAG-ARS-extracellular enzyme after the treatment with trypsin beads (Homo sapiens, UniProt Q7Z410, INS90FVSSFQKTELEASCVGCSVLNYRDGNSSVLVHFQ); assay: Detection of enzyme activity using physiologically active peptides (HPLC); conditions: peptide 0.1 mM in 100 mM ammonium hydrogen carbonate pH 8, 37° C. for 16 hours; versus buffer control
T1 construct: FLAG (N); made in house; host or cells: HEK293-EBNA
T1 sequence (Q7Z410 with tags, fused parts or gaps): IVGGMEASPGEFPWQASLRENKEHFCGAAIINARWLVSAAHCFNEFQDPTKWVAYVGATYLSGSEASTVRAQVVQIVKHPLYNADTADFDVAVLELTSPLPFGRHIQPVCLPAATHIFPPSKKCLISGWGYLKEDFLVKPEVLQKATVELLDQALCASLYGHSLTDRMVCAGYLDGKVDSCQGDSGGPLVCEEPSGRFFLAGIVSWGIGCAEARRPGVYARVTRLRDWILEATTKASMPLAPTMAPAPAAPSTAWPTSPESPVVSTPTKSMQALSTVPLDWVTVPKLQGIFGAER
T1 sequence (Q7Z410 with tags, fused parts or gaps INS90FVSSFQKTELEASCVGCSVLNYRDGNSSVLVHFQ): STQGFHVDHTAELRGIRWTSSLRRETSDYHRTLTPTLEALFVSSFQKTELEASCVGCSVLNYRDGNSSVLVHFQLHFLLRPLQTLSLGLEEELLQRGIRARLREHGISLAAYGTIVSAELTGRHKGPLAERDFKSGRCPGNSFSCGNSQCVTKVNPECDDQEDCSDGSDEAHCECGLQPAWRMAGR
Protocol: The purified signal-FLAG-ARS-extracellular enzyme after the treatment with trypsin beads in the same manner as in the method of Example 9 was used as an enzyme sample and was mixed with the following physiologically active peptides for reaction at 37° C. for 16 hours, to detect the enzyme activity. As a control without addition of enzyme, an ammonium hydrogen carbonate buffer was used. The peptides were adjusted to 0.1 mM in 100 mM ammonium hydrogen carbonate solution of pH 8. The peptides used were adenocorticotropic hormone (ACTH), angiotensin 1-13, angiotensin 1-14, angiotensin 1-7, angiotensin 1-9, angiotensin 3-7, angiotensin 3-8, angiotensin I, angiotensin II, angiotensin III, A-type natriuretic peptide (ANP), apelin 13, apelin 36, big gastrin, B-type natriuretic peptide 32 (BNP 32), bradykinin, benzoyl-Gly-His-Leu, chymostatin, C-type natriuretic peptide 22 (CNP 22), arginine-deficient bradykinin (Des-Arg-bradykinin), leucine-terminal enkephalin (Leu-enkephalin), methionine-terminal enkephalin (Met-enkephalin), growth hormone (GH), gastric inhibitory peptide (GIP), glucagon-like peptide 1 (GLP-1), glucagon-like peptide 2 (GLP-2), glucagon, growth hormone releasing factor (GRF), insulin, luteinizing hormone releasing hormone (LH-RH), melanin-concentrating hormone (MCH), α-melanocyte stimulating hormone (α-MSH), motilin, neurotensin, neuropeptide Y (NPY), oxytosin, pituitary adenylate cyclase activating polypeptide 38 (PACAP38), prolactin-releasing peptide (PrRP31), pyroglutamic apelin 13 (Pyr-apelin 13), secretin, somatostatin, substance P, [D-Argl, D-Pro2,D-Trp7,9, Leul1]-substance P, [D-Pro2,D-Trp7,9]-substance P, urotensin II, or vasoactive intestinal peptide (VIP) (all from Peptide Institute, Inc.). The cleavage of the substrate peptides was confirmed by analyzing and comparing the reaction of a sample with the enzyme solution to with that of a sample with added ammonium hydrogen carbonate buffer instead of the enzyme, by high-performance liquid chromatography (HPLC) (LC-10AS manufactured by Shimadzu Co., Ltd.).
TSK-gel ODS-80 Ts column, manufactured by TOSOH
Column temperature: 40° C.
Measurement wavelength: 220 nm
Compositions of solvent solutions
Solution A: 10 mM potassium dihydrogen phosphate buffer, pH 7.4 to 8.0
Solution B: mixture solution of 90% acetonitrile: 10% ultra-pure water

[2] = target: T2, purified protein solution (signal-FLAG-ARS-extracellular protein) (Homo sapiens, UniProt Q7Z410, INS90FVSSFQKTELEASCVGCSVLNYRDGNSSVLVHFQ); assay: Enzyme activity of purified recombinant protein using synthetic peptides; conditions: substrate 200 μM or 400 μM, ammonium hydrogen carbonate buffer, 37° C. for one hour; versus buffer control
T2 construct: made in house; host or cells: HEK293-EBNA
T2 sequence (Q7Z410 with tags, fused parts or gaps INS90FVSSFQKTELEASCVGCSVLNYRDGNSSVLVHFQ): T1 sequence (Q7Z410 with tags, fused parts or gaps INS90FVSSFQKTELEASCVGCSVLNYRDGNSSVLVHFQ)
T2 sequence (Q7Z410 with tags, fused parts or gaps): T1 sequence (Q7Z410 with tags, fused parts or gaps)
Protocol: Using a cell expressing the signal-FLAG-ARS-extracellular protein, a recombinant protein secreted into the liquid culture of the cell was extracted and purified. Specifically, the transfected HEK293EBNA cells were incubated by the same method as in Example 7 to about 80% confluence, from which the culture medium was then removed. Instead, a culture medium containing 4% serum was added, for further incubation under conditions of 37° C. and a carbon dioxide concentration of 5% for another 4 days. The culture supernatant was recovered 4 days later; filtered through a 0.22-μm filter (Zartor); and adsorbed on an ANTI-FLAG M2-AGAROSE AFFINITY GEL (Sigma) column equilibrated with TBS buffer by a routine method. Subsequently, about 50 ml of the TBS buffer was used for washing the column. Then, 6 ml of […] glycine hydrochloride solution of pH 2.2 was passed through the column to obtain each 1 ml fraction. To the separated fractions, 100 μl of 1 M Tris-HCl of pH 8 was immediately added to adjust the pH. The individual fractions thus obtained were confirmed by Western blotting using an antibody against the FLAG tag added to the N terminus (mouse anti-FLAG monoclonal antibody M2; Sigma). Specifically, the eluted fractions were electrophoresed on SDS/4% to 20% acrylamide gel (Daiichi Pure Chemicals Co., Ltd.) (under reducing conditions) and then transferred on PVDF membrane (Millipore) using a blotting apparatus. After adding Block Ace (DAINIPPON PHARMACEUTICAL CO., LTD.) for blocking to the transferred PVDF membrane, a biotinylated mouse anti-FLAG monoclonal antibody (M2; Sigma) and horseradish peroxidase-labeled streptoavidin (Amersham Pharmacia) were sequentially reacted. After reaction, it was confirmed that which eluted fractions contained the protein, using ECL Western blotting detection system (Amersham Pharmacia).
Using a synthetic peptides which have the C terminus labeled wit MCA (4-methyl-coumaryl-7-amide) by the same method as in Example 8, the cleavage activity of the enzyme purified in Example 10 was detected. Unless otherwise described, the method described in a paper (Yasuoka, S. et al., Am. J. Respir. Cell Mol Biol., Vol. 16, 300-308, 1997) was used. Specifically, using a synthetic peptides (Peptide Institute, Inc.) which have the C terminus labeled with MCA as substrates, the substrates were diluted with ammonium hydrogen carbonate buffer to become a final concentration of 200 μM or 400 μM in a 96-well plate. After the purified protein solution obtained in Example 10 or the ammonium hydrogen carbonate buffer as a control was added to the substrate solutions, the resulting mixtures were incubated at 37° C. for one hour. Subsequently, the fluorescence of AMC (7-amino-4-methyl-coumarin) released from the synthetic peptide by enzymatic cleavage was measured at a wavelength of 460 nm for measurement, using an excitation wavelength of 390 nm with a fluorescent plate reader (SAFIRE manufactured by TECAN). In FIG. 1, the open bar expresses buffer control, while the solid bar expresses the case of using purified protein solution. The first bar represents the case of using Boc-Glu(OBzl)-Ala-Arg-MCA as a substrate; the second bar represents the case of using Boc-Phe-Ser-Arg-MCA as a substrate; the third bar represents the case of using Boc-Leu-Ser-Thr-Arg-MCA as a substrate; the fourth bar represents the case of using Boc-Gln-Arg-Arg-MCA as a substrate; the fifth bar represents the case of using Suc-Ala-Ala-Pro-Phe-MCA as a substrate; the sixth bar represents the case of using Suc-Ala-Pro-Ala-MCA as a substrate; the seventh bar represents the case of using Boc-Glu-Lys-Lys-MCA as a substrate; the eighth bar represents the case of using Boc-Leu-Lys-Arg-MCA as a substrate; the ninth bar represents the case of using Boc-Leu-Gly-Arg-MCA as a substrate; and the tenth bar represents the case of using Boc-Asp(OBzl)-Pro-Arg-MCA as a substrate.

[3] = target: T3, enzyme solution treated with trypsin beads (purified signal-FLAG-ARS-extracellular protein) (Homo sapiens, UniProt Q7Z410, INS90FVSSFQKTELEASCVGCSVLNYRDGNSSVLVHFQ); assay: Substrate cleavage activity of purified protein solution treated with trypsin beads; conditions: substrate 400 μM, ammonium hydrogen carbonate buffer, 37° C. for one hour
T3 construct: FLAG (N); made in house; host or cells: HEK293-EBNA
T3 sequence (Q7Z410 with tags, fused parts or gaps): T1 sequence (Q7Z410 with tags, fused parts or gaps)
T3 sequence (Q7Z410 with tags, fused parts or gaps INS90FVSSFQKTELEASCVGCSVLNYRDGNSSVLVHFQ): T1 sequence (Q7Z410 with tags, fused parts or gaps INS90FVSSFQKTELEASCVGCSVLNYRDGNSSVLVHFQ)
Protocol: By the same method as in Example 9, an enzyme solution treated with trypsin beads was obtained, using the purified protein solution. Then, the substrate cleavage activity of the enzyme solution was measured by the same method as in Example 8. Specifically, synthetic peptide substrates were diluted in ammonium hydrogen carbonate buffer to become a final concentration of 400 μM in a 96-well plate. After the enzyme solution described above was mixed into the resulting diluted substrates, the mixture were incubated at 37° C. for one hour. Subsequently, the fluorescence of AMC released from the synthetic peptide by enzymatic cleavage were measured.

Substance	cleavage of physiologically active peptide by enzyme sample (HPLC) [1]	cleavage of synthetic peptide by purified protein solution (fluorescence of released AMC) [2]	cleavage of synthetic peptide by enzyme solution treated with trypsin beads (fluorescence of released AMC) [3]
Boc-Glu-Lys-Lys-{AMC}	–	cleaved	cleaved
A-type natriuretic peptide [ANP]	selectively cleaved	–	–
Boc-Leu-Gly-Arg-{AMC}	–	cleaved	cleaved
Boc-Leu-Lys-Arg-{AMC}	–	cleaved	cleaved
Boc-Asp(OBn)-Pro-Arg-{AMC}	–	cleaved	cleaved

Continued, values first:

cleavage of physiologically active peptide by enzyme sample (HPLC) [1]	cleavage of synthetic peptide by purified protein solution (fluorescence of released AMC) [2]	cleavage of synthetic peptide by enzyme solution treated with trypsin beads (fluorescence of released AMC) [3]	Substance
selectively cleaved	–	–	melanin-concentrating hormone [MCH]
selectively cleaved	–	–	C-type natriuretic peptide 22 [CNP]
selectively cleaved	–	–	vasoactive intestinal peptide [VIP]
selectively cleaved	–	–	α-melanocyte stimulating hormone [α-MSH]
selectively cleaved	–	–	neuropeptide Y [NPY]
–	cleaved	cleaved	Boc-Leu-Ser-Thr-Arg-MCA (Boc-LSTR-{AMC}; SMILES Cc1cc(=O)oc2cc(NC(=O)[C@H](CCCNC(=N)N)NC(=O)[C@@H](NC(=O)[C@H](CO)NC(=O)[C@H](CC(C)C)NC(=O)OC(C)(C)C)[C@@H](C)O)ccc12) [synthetic peptide substrate labeled with MCA at the C terminus]
